Patent publication US20110300138A1 (published 2011)
Where two headings read alike, the source gives them in different places.

Tests used:
[1] = target: TSHR260-alkaline phosphatase (TSHR260-AP) (human) (UniProt P05187); assay: TSHR260-AP bridge ELISA, full length TSHR on wells; 0.01 µg/mL, diluted in assay buffer
TSHR260-AP (human) [2] = assay: TSHR260-AP bridge ELISA (full length TSHR on wells, TSHR260-AP in solution); IgG 1 µg/mL diluted in HBD serum
[3] = target: TSHR260-alkaline phosphatase (TSHR260-AP) (human) (UniProt P05187); assay: TSHR260-AP bridge ELISA, full length TSHR on wells; 10 µg/mL, diluted in assay buffer
TSHR260-AP (human) [4] = assay: TSHR260-AP bridge ELISA (full length TSHR on wells, TSHR260-AP in solution); IgG 0.1 µg/mL diluted in HBD serum
TSHR260-AP (human) [5] = assay: TSHR260-AP bridge ELISA (full length TSHR on wells, TSHR260-AP in solution); IgG 250 µg/mL diluted in HBD serum
TSHR260-AP (human) [6] = assay: TSHR260-AP bridge ELISA (full length TSHR on wells, TSHR260-AP in solution); IgG 0.5 µg/mL diluted in HBD serum
TSHR260-AP (human) [7] = assay: TSHR260-AP bridge ELISA (full length TSHR on wells, TSHR260-AP in solution); IgG 0.5 µg/mL diluted in assay buffer
TSHR260-AP (human) [8] = assay: TSHR260-AP bridge ELISA (full length TSHR on wells, TSHR260-AP in solution); IgG 0.1 µg/mL diluted in assay buffer
[9] = target: human TSHR (thyroid stimulating hormone receptor) expressed in transfected CHO cells (human) (UniProt P16473); assay: cell-based or functional assay
TSHR260-AP (human) [10] = assay: TSHR260-AP bridge ELISA (full length TSHR on wells, TSHR260-AP in solution); IgG 0.005 µg/mL diluted in assay buffer
[11] = target: human TSH receptor (TSHR), wild type, expressed in CHO cells (human) (UniProt P16473); assay: cell-based or functional assay
[12] = target: human TSHR (wild type, full length) expressed in CHO cells (human) (UniProt P16473); assay: cell-based or functional assay
TSHR260-AP (human) [13] = assay: TSHR260-AP bridge ELISA (full length TSHR on wells, TSHR260-AP in solution); IgG 0.005 µg/mL diluted in HBD serum
[14] = target: TSHR260-alkaline phosphatase (TSHR260-AP) (human) (UniProt P05187); assay: TSHR260-AP bridge ELISA, full length TSHR on wells; 1 µg/mL, diluted in assay buffer
[15] = target: TSHR260-alkaline phosphatase (TSHR260-AP) (human) (UniProt P05187); assay: TSHR260-AP bridge ELISA, full length TSHR on wells; 0.5 µg/mL, diluted in assay buffer
[16] = target: human TSH receptor (full length, wild type) expressed in CHO cells (human) (UniProt P16473); assay: cell-based or functional assay
[17] = target: human TSHR (wild type, full length) expressed in CHO cells (human) (UniProt P16473); assay: cell-based or functional assay; remark: listed apart in the source
TSHR260-AP (human) [18] = assay: TSHR260-AP bridge ELISA (full length TSHR on wells, TSHR260-AP in solution); IgG 250 µg/mL diluted in assay buffer
[19] = target: human TSHR (wild type, full length) expressed in CHO cells (human) (UniProt P16473); assay: cell-based or functional assay; remark: listed apart in the source
TSHR260-AP (human) [20] = assay: TSHR260-AP bridge ELISA (full length TSHR on wells, TSHR260-AP in solution); IgG 0.01 µg/mL diluted in HBD serum
[21] = target: TSHR260-alkaline phosphatase (TSHR260-AP) (human) (UniProt P05187); assay: TSHR260-AP bridge ELISA, full length TSHR on wells; 0.05 µg/mL, diluted in assay buffer
[22] = target: TSHR260-alkaline phosphatase (TSHR260-AP) (human) (UniProt P05187); assay: TSHR260-AP bridge ELISA, full length TSHR on wells; 0.01 µg/mL, diluted in HBD

Mean absorbance at 405 nm (absorbance at 405 nm) [1]: 0.012 | Mean absorbance at 405 nm (absorbance at 405 nm) (TSHR260-AP (human) [2]): 0.049 | Mean absorbance at 405 nm (absorbance at 405 nm) [3]: -0.014 | Mean absorbance at 405 nm (absorbance at 405 nm) (TSHR260-AP (human) [4]): -0.002 | Mean absorbance at 405 nm (absorbance at 405 nm) (TSHR260-AP (human) [5]): 0.012 | Mean absorbance at 405 nm (absorbance at 405 nm) (TSHR260-AP (human) [6]): -0.001 | Mean absorbance at 405 nm (absorbance at 405 nm) (TSHR260-AP (human) [7]): -0.006 | Mean absorbance at 405 nm (absorbance at 405 nm) (TSHR260-AP (human) [8]): -0.013 | Cyclic AMP concentration; 3 ng/mL M22 IgG + 10 µg/mL 5B3 IgG [9]: 21.6 pmol/mL | Cyclic AMP concentration; 3 ng/mL M22 IgG + 100 µg/mL 5B3 IgG [9]: 28.1 pmol/mL | Cyclic AMP concentration; 100 µg/mL 5B3 IgG [9]: 1.1 pmol/mL | Mean absorbance at 405 nm (absorbance at 405 nm) (TSHR260-AP (human) [10]): -0.012 | Cyclic AMP concentration in hypotonic medium; 1 µg/mL 5B3 IgG + 3 ng/mL pTSH [11]: 71.9 pmol/mL | Cyclic AMP concentration in hypotonic medium; 3 µg/mL 5B3 IgG + 3 ng/mL pTSH [11]: 75.7 pmol/mL | Cyclic AMP concentration in hypotonic medium; 3 µg/mL 5B3 IgG alone [11]: 1.9 pmol/mL | Cyclic AMP concentration in isotonic medium; 1 µg/mL 5B3 IgG + 3 ng/mL pTSH [11]: 39.5 pmol/mL | Cyclic AMP concentration in isotonic medium; 3 µg/mL 5B3 IgG + 3 ng/mL pTSH [11]: 42.5 pmol/mL | Cyclic AMP concentration in isotonic medium; 3 µg/mL 5B3 IgG alone [11]: 0.5 pmol/mL | % Inhibition of T5 serum stimulation; 0.1 µg/mL 5B3 IgG [12]: 7% | % Inhibition of T5 serum stimulation; 1 µg/mL 5B3 IgG [12]: 4.1% | % Inhibition of T5 serum stimulation; 10 µg/mL 5B3 IgG [12]: 3.1% | % Inhibition of T5 serum stimulation; 100 µg/mL 5B3 IgG [12]: 12.5% | Cyclic AMP concentration; 0.1 µg/mL 5B3 IgG + T5 [12]: 59.4 pmol/mL | Cyclic AMP concentration; 1 µg/mL 5B3 IgG + T5 [12]: 61.3 pmol/mL | Cyclic AMP concentration; 10 µg/mL 5B3 IgG + T5 [12]: 61.9 pmol/mL | Cyclic AMP concentration; 100 µg/mL 5B3 IgG + T5 [12]: 55.9 pmol/mL | Cyclic AMP concentration; 100 µg/mL 5B3 IgG alone [12]: 1.1 pmol/mL | Mean absorbance at 405 nm (absorbance at 405 nm) (TSHR260-AP (human) [13]): -0.002 | Mean absorbance at 405 nm (absorbance at 405 nm) [14]: -0.004 | Mean absorbance at 405 nm (absorbance at 405 nm) [15]: -0.006 | % Inhibition; T7 serum + 100 µg/mL 5B3 IgG [16]: 0% | % Inhibition; T8 serum + 100 µg/mL 5B3 IgG [16]: 10.9% | % Inhibition; T9 serum + 100 µg/mL 5B3 IgG [16]: 0% | Cyclic AMP concentration; 100 µg/mL 5B3 IgG alone [16]: 2.7 pmol/mL | Cyclic AMP concentration; HBD + 100 µg/mL 5B3 IgG [16]: 4 pmol/mL | Cyclic AMP concentration; T7 serum + 100 µg/mL 5B3 IgG [16]: 91.9 pmol/mL | Cyclic AMP concentration; T8 serum + 100 µg/mL 5B3 IgG [16]: 76.3 pmol/mL | Cyclic AMP concentration; T9 serum + 100 µg/mL 5B3 IgG [16]: 53.2 pmol/mL | % Inhibition of T13 serum stimulation; 100 µg/mL 5B3 IgG [17]: 22.5% | % Inhibition of T14 serum stimulation; 100 µg/mL 5B3 IgG [17]: 24.6% | % Inhibition of T15 serum stimulation; 100 µg/mL 5B3 IgG [17]: 18.3% | Cyclic AMP concentration; 100 µg/mL 5B3 IgG alone [17]: 4.1 pmol/mL | Cyclic AMP concentration; HBD + 100 µg/mL 5B3 IgG [17]: 5.1 pmol/mL | Cyclic AMP concentration; T13 serum + 100 µg/mL 5B3 IgG [17]: 37.6 pmol/mL | Cyclic AMP concentration; T14 serum + 100 µg/mL 5B3 IgG [17]: 20.5 pmol/mL | Cyclic AMP concentration; T15 serum + 100 µg/mL 5B3 IgG [17]: 41.9 pmol/mL | Mean absorbance at 405 nm (absorbance at 405 nm) (TSHR260-AP (human) [18]): 0.018 | % Inhibition of T8 serum stimulation; 0.1 µg/mL 5B3 IgG [19]: 3% | % Inhibition of T8 serum stimulation; 1 µg/mL 5B3 IgG [19]: 2% | % Inhibition of T8 serum stimulation; 10 µg/mL 5B3 IgG [19]: 0% | % Inhibition of T8 serum stimulation; 100 µg/mL 5B3 IgG [19]: 3% | Cyclic AMP concentration; 0.1 µg/mL 5B3 IgG + T8 [19]: 50.7 pmol/mL | Cyclic AMP concentration; 1 µg/mL 5B3 IgG + T8 [19]: 51.4 pmol/mL | Cyclic AMP concentration; 10 µg/mL 5B3 IgG + T8 [19]: 56 pmol/mL | Cyclic AMP concentration; 100 µg/mL 5B3 IgG + T8 [19]: 50.5 pmol/mL | Cyclic AMP concentration; 100 µg/mL 5B3 IgG alone [19]: 2.1 pmol/mL | Mean absorbance at 405 nm (absorbance at 405 nm) (TSHR260-AP (human) [20]): 0.027 | Mean absorbance at 405 nm (absorbance at 405 nm) [21]: -0.009 | Mean absorbance at 405 nm (absorbance at 405 nm) [22]: 0.027
Substance: 5B3 IgG (antibody)
